The record followed here is patent US20240400717A1, “Antibody Binding to CHI3L1 for Treating Cancer” (National Cheng Kung University, priority 2021, published 2024).

One experiment concerns the target T1, CHI3L2 (Homo sapiens, UniProt Q15782).
T1 sequence (Q15782 27-390): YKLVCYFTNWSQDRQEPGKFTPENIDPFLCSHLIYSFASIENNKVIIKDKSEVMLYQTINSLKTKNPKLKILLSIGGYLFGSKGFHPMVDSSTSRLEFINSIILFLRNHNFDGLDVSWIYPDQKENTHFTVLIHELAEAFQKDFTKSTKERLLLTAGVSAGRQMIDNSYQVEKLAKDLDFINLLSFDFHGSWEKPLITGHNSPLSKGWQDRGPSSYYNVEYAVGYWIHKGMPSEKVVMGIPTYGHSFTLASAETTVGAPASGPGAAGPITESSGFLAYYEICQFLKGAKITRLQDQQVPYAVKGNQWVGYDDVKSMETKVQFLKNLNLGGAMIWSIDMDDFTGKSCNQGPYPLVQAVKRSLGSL
Kind of experiment: ELISA binding specificity, CHI3L2. As to conditions: mAbs 1 μg/ml; coated protein 2.5 μg/ml to 0 μg/ml. On the procedure:
(§1) Four selected clones of mAbs including R4-4, R4-54, 293R3-2, and 293R3-4 were further tested for blocking effect on human colorectal (HCT116, SW480, and SW620) and pancreatic cancer cell lines (PANC1 and MiaPaCa-2). […] P values were determined by one-way ANOVA. * P<0.05, ** P<0.01, *** P<0.001, **** P<0.0001. For binding specificity examination, we further coated different concentration of recombinant CHI3L1 protein, and two other major proteins in chitinase family including human chitotriosidase-1 (CHIT1) and CHI3L2 from 2.5 μg/ml to 0 μg/ml, on 96-well plate.

Experiment [1] has as its target human chitotriosidase-1 (CHIT1) (Homo sapiens, UniProt Q13231). Kind of experiment: ELISA binding specificity, CHIT1. The conditions noted are these: mAbs 1 μg/ml; coated protein 2.5 μg/ml to 0 μg/ml. How it is done: as §1
On the technique in general: In an ELISA, binding on a coated surface is turned into a signal by an enzyme label.

The target in a further experiment is T2, hCHI3L1/flag-His (Homo sapiens, UniProt P36222).
T2 construct: human CHI3L1 extracellular domain fused with flag and His tag
Kind of experiment: In tandem epitope binning on Octet Red96. Format: binding. As to conditions: for epitope cluster: among four anti-CHI3L1 mAbs; for competitive binding class, CHI3L1 293R3-2: paired with CHI3L1 293R3-2; for Epitope Binning Heat Map value, CHI3L1 293R3-2: paired with CHI3L1 293R3-2, 100 nM each; for competitive binding class, CHI3L1 293R3-4: paired with CHI3L1 293R3-4; for Epitope Binning Heat Map value, CHI3L1 293R3-4: paired with CHI3L1 293R3-4, 100 nM each; for competitive binding class, CHI3L1 R4-4: paired with CHI3L1 R4-4; for Epitope Binning Heat Map value, CHI3L1 R4-4: paired with CHI3L1 R4-4, 100 nM each; for competitive binding class, CHI3L1 R4-54: paired with CHI3L1 R4-54; for Epitope Binning Heat Map value, CHI3L1 R4-54: paired with CHI3L1 R4-54, 100 nM each. How it is done: In order to know the epitopic coverage for those four antibodies to increase the success of therapeutic CHI3L1 antibody development, epitope binning is used to characterize the binding site of mAbs to the corresponding antigen and summarized in the Table 4. In epitope binning, mAbs specific to the same target protein are tested pairwise against all mAbs in a set to assess whether they block one another's binding to a specific site of the antigen or not. The mAbs that block binding to the same epitope are “binned” together. mAbs within the same bin often function similarly, so epitope bins can narrow down the choices to fewer candidates for investigators to choose from. The in tandem epitope binning assay conducted on Octet Red96 comprised a five-step binding cycle; 1) a buffer baseline was established for 30 sec, 2) 100 nM hCHI3L1/flag-His was captured for 5 min, 3) 100 nM mAb array was loaded to saturate the captured antigen for 10 min, 4) 100 nM of the test mAb was bound for 5 min, and 5) the capture surfaces were regenerated for 30 sec. Anti-His surfaces were regenerated with 10 mM glycine pH 1.7. Raw data was processed using ForteBio's Data Analysis HT Software 11.1 and the antibody pairs were assessed for competitive binding. Additional binding by the second antibody indicates an unoccupied epitope (non-competitor, marked as *c in Table 4), while no binding indicates epitope blocking (competitor, marked as *b in Table 4) and self-competing antibodies were marked as *a in Table 4. Among four anti-CHI3L1 mAbs, there are two epitope clusters.
A general note: In BLI a coated tip is dipped into the sample, and binding shifts an interference pattern.

The next experiment deals with MiaPaCa cells. Kind of experiment: MiaPaCa orthotopic NOD-SCID mice model. The conditions noted are these: for level of CHI3L1 in intratumoral region and plasma: end of experiment; for infiltrated macrophages in tumor sections (F4/80+, CD206+): immunofluorescence, 5 mg/kg i.v.; for angiogenesis indicated by CD31 expression / tumor size: mAb 5 mg/kg i.v., gemcitabine 50 mg/kg i.p.; for tumor size: Day 7, 14, 21, 28, sacrificed day 34.

Experiment [2] deals with MiaPaCa-2, SW480 and A549 cells. Kind of experiment: Wound healing assay with rCHI3L1. The experiment is classed as cell-based, human. The conditions noted are these: MiaPaCa-2, SW480, A549; 16 hours. How it is done: Since AKT regulates cell migration, we further performed wound healing assay to examine the anti-migratory effect of mAbs on pancreatic (MiaPaCa-2), colorectal (SW480), and lung (A549) cells. We observed that after 16 hours, the wound closure area was increased compared to that in control groups upon rCHI3L1 treatment. […] Taken together, our fully human monoclonal CHI3L1 neutralizing antibody clones R4-4, R4-54, 293R3-2, and 293R3-4 blocked the CHI3L1 induced signaling and cell behaviors of tumor cells. The data was presented as mean±S.D. (n=3 per group). P values were determined by one-way ANOVA. * P<0.05, ** P<0.01, *** P<0.001, **** P<0.0001.

Experiment [3] concerns the target CHI3L1-receptor(s) interaction on HCT116, SW480, SW620, PANC1 and MiaPaCa-2 (Homo sapiens, UniProt P36222). Kind of experiment: Flow cytometry blockage of rCHI3L1-receptor(s) interaction, colorectal and pancreatic cancer cell lines. Format: cell-based. The conditions noted are these: HCT116, SW480, SW620, PANC1, MiaPaCa-2, flow cytometry. How it is done: CHI3L1 have been reported to interact with several receptors on cancer cells, and trigger downstream signaling for cancer cell growth, proliferation and anti-apoptosis (Kamba et al. 2013; Lee et al. 2016). […] His-tagged rCHI3L1 was added for CHI3L1-receptor(s) interaction. Anti-His antibody AHAb with fluorescent F recognized CHI3L1-receptor(s) R complex for detection (left, FIG. 4A). Once fully human mAbs (nCHI3L1 Ab) blocked the CHI3L1-receptor(s) interaction, the fluorescent F signals were decreased (right, FIG. 4A) and cell signaling CS was blockade.
as §1
(A flow cytometer gives signals particle by particle.)

For another experiment, the system named is PANC1 cells. Kind of experiment: Immunoblot of rCHI3L1-induced AKT and ERK phosphorylation, PANC1. The experiment is classed as cell-based, human. The conditions noted are these: PANC1, rCHI3L1 100 ng/ml, 20 minutes, different dose of mAbs. How it is done: The involvement of CHI3L1 in intracellular signaling pathways has been reported. For example, CHI3L1 binding to CD44 activates protein kinase B (AKT) and extracellular signal-regulated kinase (ERK) signaling to promote cancer progression (Chen, Jiang et al. 2021). Thus, we tested whether mAb clones R4-4, R4-54, 293R3-2, and 293R3-4 could attenuate AKT and ERK phosphorylation in human pancreatic (PANC1), colorectal (HCT116), and lung (A549) cancer cell lines. PANC1 cells were treated with rCHI3L1 (100 ng/ml) only or rCHI3L1 with different dose of mAbs as indicated for 20 minutes.

Another experiment has as its system SW480 and SW620 cells. Kind of experiment: rCHI3L1-induced foci formation. The experiment is classed as cell-based, human.

T2 sequence (P36222 22-383): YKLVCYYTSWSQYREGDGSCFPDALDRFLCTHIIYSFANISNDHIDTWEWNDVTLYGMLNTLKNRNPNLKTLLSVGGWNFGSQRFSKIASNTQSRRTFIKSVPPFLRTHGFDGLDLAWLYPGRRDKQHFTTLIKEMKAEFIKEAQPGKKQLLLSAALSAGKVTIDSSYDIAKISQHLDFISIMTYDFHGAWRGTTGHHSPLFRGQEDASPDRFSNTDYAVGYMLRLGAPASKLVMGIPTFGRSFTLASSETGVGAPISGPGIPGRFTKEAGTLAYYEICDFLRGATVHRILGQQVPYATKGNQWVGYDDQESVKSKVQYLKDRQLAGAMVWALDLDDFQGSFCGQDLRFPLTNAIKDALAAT
Chain of human chitotriosidase-1 (CHIT1) (Q13231 22-466): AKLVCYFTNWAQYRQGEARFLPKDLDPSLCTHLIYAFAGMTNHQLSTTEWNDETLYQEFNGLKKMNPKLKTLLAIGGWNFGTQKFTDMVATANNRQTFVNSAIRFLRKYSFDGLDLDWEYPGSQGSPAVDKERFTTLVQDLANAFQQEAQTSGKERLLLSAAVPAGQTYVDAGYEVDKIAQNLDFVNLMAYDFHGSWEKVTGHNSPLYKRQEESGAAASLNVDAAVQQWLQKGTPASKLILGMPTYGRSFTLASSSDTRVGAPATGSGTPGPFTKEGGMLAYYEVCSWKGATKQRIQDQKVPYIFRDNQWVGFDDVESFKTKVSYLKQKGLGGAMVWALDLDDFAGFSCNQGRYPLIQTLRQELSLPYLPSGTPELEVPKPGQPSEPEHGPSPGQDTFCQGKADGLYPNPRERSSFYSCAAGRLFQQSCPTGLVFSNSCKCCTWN
Chain of CHI3L1-receptor(s) interaction on HCT116, SW480, SW620, PANC1 and MiaPaCa-2 (P36222 22-383): as the sequence (P36222 22-383) above
Method for MiaPaCa cells: Specifically, experimental design of tumor growth inhibition in vivo. MiaPaCa cells (5×10^6) were injected into pancreas of NOD-SCID mice at Day 0. […] Mice were sacrificed on day 34. […] Since fibrosis and angiogenesis are two major issues during tumor progression, we compared the fibrosis and angiogenesis level within each groups.

B1: 293R3-4: fully human anti-CHI3L1 IgG1 mAb, Table 1 No. 4; heavy chain SEQ ID NO: 73, light chain SEQ ID NO: 74 (antibody, listed as Homo sapiens)
VH: EVQLVQSGAEVKKPGATVKISCKVSGYSFTDYYIHWVQQAPGKGLEWMGFVDPENGETIYAEKFQGRVTITADTSTDTAYMELSSLRSDDTAVYYCATDRDYDDSSGNAFDIWGQGTMVTVSS
light: SYELTQPPSVSVSTGQTATITCSGDILGDEYAFWYQQKAGQSPVLVIYLDTRRPSGIPERFSGSNSGDTATLTISETQPVDEAVYFCQGWDSSTALYVFGTGTKVTVLGQPKANPTVTLFPPSSEELQANKATLVCLISDFYPGAVTVAWKADGSPVKAGVETTKPSKQSNNKYAASSYLSLTPEQWKSHRSYSCQVTHEGSTVEKTVAPTECS
Regarding B1, the “binding specificity: recognition of CHI3L2” value in the experiment with CHI3L2 is on record as “no other chitinase proteins”. In addition, the “binding specificity: recognition of CHIT1” value in experiment [1] is given as “no other chitinase proteins”. Besides, in the experiment with hCHI3L1/flag-His, the epitope cluster result is listed as “unidirectional blocking results”; the “competitive binding class, CHI3L1 293R3-2” value is listed as “*^b”; the “Epitope Binning Heat Map value, CHI3L1 293R3-2” value is listed as 0.1221; the “competitive binding class, CHI3L1 293R3-4” value was “*^a”. Moreover, in the experiment with hCHI3L1/flag-His, the “Epitope Binning Heat Map value, CHI3L1 293R3-4” value is 0.3014; the “competitive binding class, CHI3L1 R4-4” value is “*^c”; the “Epitope Binning Heat Map value, CHI3L1 R4-4” value came out at 1.1089; the “competitive binding class, CHI3L1 R4-54” value is “*^c”. Moreover, in the experiment with hCHI3L1/flag-His, the “Epitope Binning Heat Map value, CHI3L1 R4-54” value worked out at 0.4217. For the same molecule, in the experiment on MiaPaCa cells, the “level of CHI3L1 in intratumoral region and plasma” value was “lower than IgG control group”; the “infiltrated macrophages in tumor sections (F4/80+, CD206+)” value was “more macrophages other than M2 phenotype”; the “angiogenesis indicated by CD31 expression” value is recorded as “decreased in every treatment groups”; the tumor size result is “smaller than IgG control group”. The “cell migration ability induced by rCHI3L1 (wound closure area)” value in experiment [2] was “significantly reduced cell migration ability”. Besides, the “rCHI3L1 binding to cells” value in experiment [3] is “significantly reduced”. Further, the “p-AKT and p-ERK levels induced by rCHI3L1” value in the experiment with PANC1 cells is “inhibited p-AKT and p-ERK levels induced by rCHI3L1 in a dose dependent manner”. In addition, the number of foci entry in the experiment on SW480 and SW620 cells is given as “decreased in a dose-dependent manner”.

B2: 293R3-2: fully human anti-CHI3L1 IgG1 mAb, Table 1 No. 2; heavy chain SEQ ID NO: 65, light chain SEQ ID NO: 66 (antibody, listed as Homo sapiens)
VH: QVQLQESGPGLVEPSGTLSLTCAVSGGSISSSNWWSWVRQHPGKGLEWIGEIYHSGSTNYNPSLRSRVTISVDKSKNQFSLELSSVTAADTAVYYCAGDQRMEDDAFDIWGQGTMVTVSS
light: QSALTQPASVSGSPGQSITISCTGTSSDVGGYNYVSWYQQHPGKAPKLMIYDVSNRPSGVSNRFSGSKSGNTASLTISGLQAEDEADYYCSSYTSSSTLYVFGTGTKVTVLGQPKANPTVTLFPPSSEELQANKATLVCLISDFYPGAVTVAWKADGSPVKAGVETTKPSKQSNNKYAASSYLSLTPEQWKSHRSYSCQVTHEGSTVEKTVAPTECS
On to B2, for which the “binding specificity: recognition of CHI3L2” value with CHI3L2 is “no other chitinase proteins”. Also, the “binding specificity: recognition of CHIT1” value in experiment [1] is “no other chitinase proteins”. Further, in the experiment with hCHI3L1/flag-His, the epitope cluster result is “unidirectional blocking results”; the “competitive binding class, CHI3L1 293R3-2” value is listed as “*^a”; the “Epitope Binning Heat Map value, CHI3L1 293R3-2” value came to 0.2110; the “competitive binding class, CHI3L1 293R3-4” value is reported as “*^c”. For the same molecule, in the experiment with hCHI3L1/flag-His, the “Epitope Binning Heat Map value, CHI3L1 293R3-4” value is listed as 0.6303; the “competitive binding class, CHI3L1 R4-4” value is “*^c”; the “Epitope Binning Heat Map value, CHI3L1 R4-4” value is reported as 0.7478; the “competitive binding class, CHI3L1 R4-54” value is “*^c”. The “Epitope Binning Heat Map value, CHI3L1 R4-54” value in the experiment with hCHI3L1/flag-His was 0.7349. In the experiment with MiaPaCa cells, the “level of CHI3L1 in intratumoral region and plasma” value is “lower than IgG control group”; the “infiltrated macrophages in tumor sections (F4/80+, CD206+)” value was “more macrophages other than M2 phenotype”; the “angiogenesis indicated by CD31 expression” value is listed as “decreased in every treatment groups”; the tumor size entry was “smaller than IgG control group”. The “cell migration ability induced by rCHI3L1 (wound closure area)” value in experiment [2] was “significantly reduced cell migration ability”. In experiment [3], the “rCHI3L1 binding to cells” value is “significantly reduced”. Also, the “p-AKT and p-ERK levels induced by rCHI3L1” value with PANC1 cells is “inhibited p-AKT and p-ERK levels induced by rCHI3L1 in a dose dependent manner”. Besides, the number of foci entry in the experiment on SW480 and SW620 cells is listed as “decreased in a dose-dependent manner”.
